“And” between values parts separate entries of the source, which are not always exact repeats. Equal entries are not always repeated. Starred links: 1 amine or outer side, 2 acyl side, 3 side chain; linkers in the order of their positions; H or OH if unused. Positions of bridges follow the written chain, without caps; N, C: chain ends. Non-standard residues stand in square brackets, D forms with d. No end group written: not given here. *: point of attachment. TATB = O=C(C[*:1])N1CN(C(=O)C[*:2])CN(C(=O)C[*:3])C1; 1Nal = N[C@@H](Cc1cccc2ccccc12)C(=O)O; 2Nal = N[C@@H](Cc1ccc2ccccc2c1)C(=O)O; AzPro = azidopropyl, [N-]=[N+]=NCCC*; Hyp = O=C(O)[C@@H]1C[C@@H](O)CN1; tBuAla = CC(C)(C)C[C@H](N)C(=O)O; 4Pal = N[C@@H](Cc1ccncc1)C(=O)O; Tle = CC(C)(C)[C@H](N)C(=O)O; Aib = CC(C)(N)C(=O)O
B1: BCY20546 (peptide)
peptide: CPXDAYLGCXSYC
modifications: 3 Cys on TATA; N-terminal acetyl (Ac); core as printed CP[HyP]DAYLGC[tBuGly]SYC
notes: Same peptide as BCY17991 but cyclised on TATA
B2: BCY15935 (peptide)
peptide: CSPDAHLGCISYC
modifications: 3 Cys on a scaffold (TATA or TATB assumed by the filing for non-inhibitory peptides; not stated for this one)
B3: BCY15889 (peptide)
peptide: Ac-CPPDAHLGCISWC-NH2
modifications: linker 1-9-13 via TATB
SMILES: CC[C@H](C)[C@@H]1NC(=O)[C@@H]2CSCC(=O)N3CN(CN(C3)C(=O)CSC[C@H](NC(C)=O)C(=O)N3CCC[C@H]3C(=O)N3CCC[C@H]3C(=O)N[C@@H](CC(=O)O)C(=O)N[C@@H](C)C(=O)N[C@@H](Cc3c[nH]cn3)C(=O)N[C@@H](CC(C)C)C(=O)NCC(=O)N2)C(=O)CSC[C@@H](C(N)=O)NC(=O)[C@H](Cc2c[nH]c3ccccc23)NC(=O)[C@H](CO)NC1=O

The binders below were run against T1, Recombinant human TfR1, His6-tagged (a.a. 89-760) (human, UniProt P02786 89-760) (assay: SPR, TfR1 on chip).
T1 construct: range 89-760; captured and coupled on an NTA chip for SPR; also called transferrin receptor 1; CD71
T1 sequence (P02786 89-760 limits assumed): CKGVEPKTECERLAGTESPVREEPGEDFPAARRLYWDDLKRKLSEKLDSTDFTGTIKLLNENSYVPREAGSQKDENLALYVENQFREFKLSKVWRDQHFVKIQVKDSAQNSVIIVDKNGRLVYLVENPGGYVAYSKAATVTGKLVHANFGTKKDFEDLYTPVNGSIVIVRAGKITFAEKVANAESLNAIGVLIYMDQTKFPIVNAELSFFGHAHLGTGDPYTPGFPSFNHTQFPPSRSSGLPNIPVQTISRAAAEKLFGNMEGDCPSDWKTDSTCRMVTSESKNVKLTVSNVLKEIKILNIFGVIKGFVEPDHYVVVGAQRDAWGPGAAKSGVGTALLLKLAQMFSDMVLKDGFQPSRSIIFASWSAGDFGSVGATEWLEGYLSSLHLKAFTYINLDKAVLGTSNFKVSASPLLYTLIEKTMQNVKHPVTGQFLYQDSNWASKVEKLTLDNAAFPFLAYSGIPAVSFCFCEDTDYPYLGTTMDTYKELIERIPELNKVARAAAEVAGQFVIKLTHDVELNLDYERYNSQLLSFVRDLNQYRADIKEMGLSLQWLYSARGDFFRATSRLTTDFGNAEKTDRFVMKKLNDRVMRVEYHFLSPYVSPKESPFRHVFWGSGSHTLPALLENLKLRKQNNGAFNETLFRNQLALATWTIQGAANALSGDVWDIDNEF

Kd	Binder
305 nM	ACSPDAHLGCIS[4Pal]CA (linker 2-10-14 via TATB) [BCY16032]
20000 nM	ACSPDAYLGC[tBuAla]SYCA (linker 2-10-14 via TATB) [BCY16558]
68 nM	ACSPDAHLGCIS[2Nal]CA (linker 2-10-14 via TATB) [BCY16031]
12 nM	ACS[Aib]DAHLGC[Tle]SYCA (linker 2-10-14 via TATB) [BCY16753]
6.1 nM	ACP[Aib]DAHLGC[Tle]SYCA (linker 2-10-14 via TATB) [BCY16962]
1660 nM	B1
46 nM	Ac-CSPDAHLGCISYC (linker 1-9-13 via TATB) [BCY15891]
50 nM	Ac-CSADAHLGCISYC (linker 1-9-13 via TATB (inferred)) [BCY17987]
422 nM	NWNCSPDAHLGCISYC (3 Cys on TATB; N-terminal acetyl (Ac); [NMeTrp] in N-terminal extension) [BCY18036]
18 nM	ACPXDAHLGCISYCA (3 Cys on TATB; core as printed CP[Aib]DAHLGCISYC) [BCY16550]
3.4 nM	CPXDAYLGCXSYCEPW (3 Cys on TATB; N-terminal acetyl (Ac); core as printed CP[HyP]DAYLGC[tBuGly]SYC) [BCY17995]

What follows are binders tested against T2, Recombinant cynomolgus TfR1, His6-tagged (a.a. 89-760) (cynomolgus, UniProt H9EXL1 89-760 (rhesus entry)) (assay: SPR, TfR1 on chip).
T2 construct: range 89-760; same product number named for FP and SPR; also called Cyno TfR1; Acro Biosystems TFR-C524a
T2 sequence (chain, as listed by the source): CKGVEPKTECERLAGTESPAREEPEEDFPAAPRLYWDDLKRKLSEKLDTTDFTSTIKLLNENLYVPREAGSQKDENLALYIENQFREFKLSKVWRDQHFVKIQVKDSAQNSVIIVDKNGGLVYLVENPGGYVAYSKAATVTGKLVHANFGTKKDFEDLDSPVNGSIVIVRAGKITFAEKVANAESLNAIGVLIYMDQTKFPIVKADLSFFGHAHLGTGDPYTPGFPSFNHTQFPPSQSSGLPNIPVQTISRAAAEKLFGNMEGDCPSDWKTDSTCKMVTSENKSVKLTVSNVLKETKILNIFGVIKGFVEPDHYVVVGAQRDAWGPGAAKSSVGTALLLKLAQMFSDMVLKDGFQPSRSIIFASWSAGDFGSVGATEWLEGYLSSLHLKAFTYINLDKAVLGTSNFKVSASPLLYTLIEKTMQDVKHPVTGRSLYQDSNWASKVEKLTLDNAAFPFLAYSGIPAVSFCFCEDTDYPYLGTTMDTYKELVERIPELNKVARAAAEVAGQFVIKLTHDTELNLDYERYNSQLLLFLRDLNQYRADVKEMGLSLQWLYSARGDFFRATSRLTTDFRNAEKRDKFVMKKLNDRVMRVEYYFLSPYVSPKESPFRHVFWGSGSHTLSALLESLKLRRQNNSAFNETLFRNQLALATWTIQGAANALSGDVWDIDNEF

Kd	Binder
535 nM	Ac-NWNCSPDAHLGCISYC (linker 4-12-16 via TATB (inferred)) [BCY17992]
30000 nM	ACSPDAHLGCIS[4Pal]CA (linker 2-10-14 via TATB) [BCY16032]
281 nM and 535 nM	NWNCSPDAHLGCISYCA (linker 4-12-16 via TATB) [BCY17109]
50000 nM	ACSPDAYLGC[tBuAla]SYCA (linker 2-10-14 via TATB) [BCY16558]
2600 nM	NEVCSPDAHLGCISYCA (linker 4-12-16 via TATB (inferred)) [BCY17112]
1260 nM	ACSPDAHLGCISYCPIVH (linker 2-10-14 via TATB (inferred)) [BCY17120]
2080 nM	Ac-N[1Nal]NCSPDAHLGCISYC (linker 4-12-16 via TATB) [BCY18034]
6480 nM	ACSPDAHLGCIS[2Nal]CA (linker 2-10-14 via TATB) [BCY16031]
1900 nM	ACSPDAYLGC[Tle]SYCA (linker 2-10-14 via TATB) [BCY16966]
514 nM	ACPPDAYLGC[Tle]SYCA (linker 2-10-14 via TATB) [BCY16964]
589 nM	NWNCPXDAYLGCXSYC (3 Cys on TATB; core as printed CP[HyP]DAYLGC[tBuGly]SYC) [BCY18033]
501 nM	ACP[Aib]DAYLGC[Tle]SYCA (linker 2-10-14 via TATB) [BCY16963]
1700 nM	ACS[Aib]DAHLGC[Tle]SYCA (linker 2-10-14 via TATB) [BCY16753]
599 nM	ACP[Aib]DAHLGC[Tle]SYCA (linker 2-10-14 via TATB) [BCY16962]
3990 nM	Ac-CSPDAHLGCISYC (linker 1-9-13 via TATB) [BCY15891]
4660 nM	Ac-CAPDAHLGCISYC (linker 1-9-13 via TATB (inferred)) [BCY17986]
5140 nM	Ac-CSADAHLGCISYC (linker 1-9-13 via TATB (inferred)) [BCY17987]
1650 nM	Ac-CSPDAHLGCISYCE[dP]W (linker 1-9-13 via TATB (inferred)) [BCY18038]
688 nM	Ac-CSPDAHLGCISYCEPW-NH2 (linker 1-9-13 via TATB (inferred)) [BCY17994]
845 nM	ACSPDAHLGCISYCEPW (linker 2-10-14 via TATB (inferred)) [BCY17114]
7310 nM	NWNCSPDAHLGCISYC (3 Cys on TATB; N-terminal acetyl (Ac); [NMeTrp] in N-terminal extension) [BCY18036]
682 nM	ACPXDAHLGCISYCA (3 Cys on TATB; core as printed CP[Aib]DAHLGCISYC) [BCY16550]
10300 nM	Ac-N[dW]NCSPDAHLGCISYC (linker 4-12-16 via TATB (inferred)) [BCY18035]
5480 nM	ACSPDAHLGCIS[1Nal]CA (linker 2-10-14 via TATB) [BCY16029]

These binders were tested against T3, Human TfR1 protein (R&D Systems, 2474-TR or Acro Biosystems, CD1-H5243) (human, UniProt P02786 89-760) (assay: FP competition, competitor BCY15768).
T3 sequence (P02786 89-760 limits assumed): as the sequence (P02786 89-760 limits assumed) above

Ki	Binder
654 nM	ACSPDAHLGCIS[4Pal]CA (linker 2-10-14 via TATB) [BCY16032]
300 nM	B2
1620 nM	ACSPDAYLGC[tBuAla]SYCA (linker 2-10-14 via TATB) [BCY16558]
30 nM	Ac-CS[Hyp]DAHLGCISYC (linker 1-9-13 via TATB) [BCY17989]
20000 nM	ACSPDAHLGCXSYCA (3 Cys on TATB; core as printed CSPDAHLGC[B-Melle]SYC (beta-methyl isoleucine)) [BCY16040]
119 nM	ACSPDAHLGCIS[2Nal]CA (linker 2-10-14 via TATB) [BCY16031]
40 nM	B3
4 nM	NWNCPXDAYLGCXSYC (3 Cys on TATB; core as printed CP[HyP]DAYLGC[tBuGly]SYC) [BCY18033]
48 nM	ACS[Aib]DAHLGC[Tle]SYCA (linker 2-10-14 via TATB) [BCY16753]
36 nM	ACP[Aib]DAHLGC[Tle]SYCA (linker 2-10-14 via TATB) [BCY16962]
67 nM	Ac-CSPDAHLGCISYC (linker 1-9-13 via TATB) [BCY15891]
42 nM	Ac-CSADAHLGCISYC (linker 1-9-13 via TATB (inferred)) [BCY17987]
8 nM	Ac-CSPDAHLGCISYCEPW-NH2 (linker 1-9-13 via TATB (inferred)) [BCY17994]
90 nM	NWNCSPDAHLGCISYC (3 Cys on TATB; N-terminal acetyl (Ac); [NMeTrp] in N-terminal extension) [BCY18036]
56 nM	ACPXDAHLGCISYCA (3 Cys on TATB; core as printed CP[Aib]DAHLGCISYC) [BCY16550]
2 nM	CPXDAYLGCXSYCEPW (3 Cys on TATB; N-terminal acetyl (Ac); core as printed CP[HyP]DAYLGC[tBuGly]SYC) [BCY17995]
107 nM	ACYLPDWXCGDEYCA (not fully specified; 3 Cys on TATB; core as printed CYLPDW[tBuAla]CGDEYC) [BCY15648]

Biological target: T3, Human TfR1 protein (R&D Systems, …)
Assay: FP competition, competitor BCY15768
Remark: another data set of the same source

Ki	Binder
654 nM	ACSPDAHLGCIS[4Pal]CA (linker 2-10-14 via TATB) [BCY16032]
9 nM	NWNCSPDAHLGCISYCK (3 Cys on TATB; C-terminal [K(N3)] 6-azido lysine) [BCY17870]
300 nM	B2
1620 nM	ACSPDAYLGC[tBuAla]SYCA (linker 2-10-14 via TATB) [BCY16558]
30 nM	AzPro-CSPDAHLGCISYC (linker 1-9-13 via TATB (inferred)) [BCY17869]
119 nM	ACSPDAHLGCIS[2Nal]CA (linker 2-10-14 via TATB) [BCY16031]
8 nM	Ac-CP[Hyp]DAYLGCISYC (linker 1-9-13 via TATB) [BCY17990]
6 nM	NWNCPXDAYLGCXSYC (3 Cys on TATB; core as printed CP[HyP]DAYLGC[tBuGly]SYC) [BCY18033]
48 nM	ACS[Aib]DAHLGC[Tle]SYCA (linker 2-10-14 via TATB) [BCY16753]
36 nM	ACP[Aib]DAHLGC[Tle]SYCA (linker 2-10-14 via TATB) [BCY16962]
94 nM	Ac-CSPDAHLGCISYC (linker 1-9-13 via TATB) [BCY15891]
383 nM	Ac-CSADAHLGCISYC (linker 1-9-13 via TATB (inferred)) [BCY17987]
9 nM	NWNCSPDAHLGCISYCK (3 Cys on TATB; N-terminal acetyl (Ac); C-terminal [K(N3)] 6-azido lysine) [BCY17871]
8 nM	Ac-CSPDAHLGCISYCEPW-NH2 (linker 1-9-13 via TATB (inferred)) [BCY17994]
56 nM	ACPXDAHLGCISYCA (3 Cys on TATB; core as printed CP[Aib]DAHLGCISYC) [BCY16550]
103 nM	ACSPDAHLGCISYCA (linker 2-10-14 via TATB) [BCY15468]
5 nM	CPXDAYLGCXSYCEPW (3 Cys on TATB; N-terminal acetyl (Ac); core as printed CP[HyP]DAYLGC[tBuGly]SYC) [BCY17995]

From patent publication US20250340595A1 (published 2025)
